In US20090130105A1 (Biogen, published 2009):

Tests used:
Experiment in all cases: SPR, Fab over captured mutant
[1] = biological target: T1, hIGF-1R-Fc mutant SD109 (Y482A, R483W) (human, UniProt P08069 31-933)
T1 construct: not shown: human IgG1 Fc, C-terminal tag
Method: (§1) Surface plasmon resonance (SPR) experiments were performed on a Biacore 3000 instrument set to 25° C. […] The antibody sensorchip surfaces were prepared by injecting each antibody (diluted 100 μg/mL in 10 mM Acetate, pH 4.0) over EDC/NHS-activated sensorchip surfaces according to the standard protocol of the manufacturer. […] Both hIGF-1R-Fc and mIGF-1R-Fc proteins oligomerize due to the incorporation of two separate homodimeric regions (IGF-1R and IgG1-Fc). […] After, completion of the receptor-Fc loading step, flow rates were elevated to 5 μl/min. […] Dissociation was measured for 7 minutes after the antibody injections were complete. Finally, the flow rate was elevated to 30 μL/min and the chip surfaces were regenerated by 2×10 μL injections of 0.1 M glycine, pH 2.

[2] = biological target: T2, hIGF-1R-Fc mutant SD113 (E570A, I571T) (human, UniProt P08069 31-933)
T2 construct: not shown: human IgG1 Fc, C-terminal tag
Method: as §1

[3] = biological target: T3, hIGF-1R-Fc mutant SD015 (H464E) (human, UniProt P08069 31-933)
T3 construct: not shown: human IgG1 Fc, C-terminal tag
Method: as §1

[4] = biological target: T4, hIGF-1R-Fc mutant SD102 (E459A, S460A) (human, UniProt P08069 31-933)
T4 construct: not shown: human IgG1 Fc, C-terminal tag
Method: as §1

[5] = biological target: T5, hIGF-1R-Fc mutant SD110 (E533H) (human, UniProt P08069 31-933)
T5 construct: not shown: human IgG1 Fc, C-terminal tag
Method: as §1

[6] = biological target: T6, hIGF-1R-Fc mutant SD104 (H464A) (human, UniProt P08069 31-933)
T6 construct: not shown: human IgG1 Fc, C-terminal tag
Method: as §1

[7] = biological target: T7, hIGF-1R-Fc mutant SD108 (H480E) (human, UniProt P08069 31-933)
T7 construct: not shown: human IgG1 Fc, C-terminal tag
Method: as §1

[8] = biological target: T8, hIGF-1R-Fc mutant SD103 (D461A, V462T) (human, UniProt P08069 31-933)
T8 construct: not shown: human IgG1 Fc, C-terminal tag
Method: as §1

Measured: binding result

T3 sequence (P08069 31-933 H494E): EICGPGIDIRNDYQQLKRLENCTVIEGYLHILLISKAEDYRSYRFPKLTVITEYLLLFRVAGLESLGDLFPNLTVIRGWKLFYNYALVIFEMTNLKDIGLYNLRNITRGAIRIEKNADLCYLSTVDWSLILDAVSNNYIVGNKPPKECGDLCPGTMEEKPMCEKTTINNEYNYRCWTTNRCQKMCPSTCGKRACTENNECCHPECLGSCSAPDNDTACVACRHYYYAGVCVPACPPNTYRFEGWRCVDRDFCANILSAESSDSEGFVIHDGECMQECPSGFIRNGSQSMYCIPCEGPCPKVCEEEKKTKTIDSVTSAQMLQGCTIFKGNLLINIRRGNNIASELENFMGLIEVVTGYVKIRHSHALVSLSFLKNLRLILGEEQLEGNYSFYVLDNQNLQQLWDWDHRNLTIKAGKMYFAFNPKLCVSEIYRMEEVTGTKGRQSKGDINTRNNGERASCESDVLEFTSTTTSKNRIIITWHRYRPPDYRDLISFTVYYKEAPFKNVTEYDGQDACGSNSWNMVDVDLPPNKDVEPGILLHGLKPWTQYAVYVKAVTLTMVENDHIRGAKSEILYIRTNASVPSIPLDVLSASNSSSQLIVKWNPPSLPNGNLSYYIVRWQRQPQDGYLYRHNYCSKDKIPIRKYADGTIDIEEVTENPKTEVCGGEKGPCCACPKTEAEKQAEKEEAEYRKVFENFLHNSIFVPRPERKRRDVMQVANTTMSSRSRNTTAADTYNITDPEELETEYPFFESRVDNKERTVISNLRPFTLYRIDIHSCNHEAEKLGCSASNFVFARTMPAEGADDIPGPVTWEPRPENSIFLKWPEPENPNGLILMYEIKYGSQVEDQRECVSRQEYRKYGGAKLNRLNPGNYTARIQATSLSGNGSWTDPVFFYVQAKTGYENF
T5 sequence (P08069 31-933 E563H): as the sequence (P08069 31-933 H494E) above, with E464H, E533H counted along it
T4 sequence (P08069 31-933 E489A/S490A): as the sequence (P08069 31-933 H494E) above, with E459A, S460A, E464H counted along it
T7 sequence (P08069 31-933 H510E): as the sequence (P08069 31-933 H494E) above, with E464H, H480E counted along it
T2 sequence (P08069 31-933 E600A/I601T): as the sequence (P08069 31-933 H494E) above, with E464H, E570A, I571T counted along it
T1 sequence (P08069 31-933 Y512A/R513W): as the sequence (P08069 31-933 H494E) above, with E464H, Y482A, R483W counted along it
T8 sequence (P08069 31-933 D491A/V492T): as the sequence (P08069 31-933 H494E) above, with D461A, V462T, E464H counted along it
T6 sequence (P08069 31-933 H494A): as the sequence (P08069 31-933 H494E) above, with E464A counted along it

B1: M14-C03 Fab (Fab, V domains shown)
VH: EVQLLESGGGLVQPGGSLRLSCAASGFTFSKYMMSWVRQAPGKGLEWVSYISPSGGLTWYADSVKGRFTISRDNSKNTLYLQMNSLRAEDTAVYYCARDGARGYGMDVWGQGTTVTVSS
VL: DIQMTQSPATLSLSPGERATLSCRASQSVSSYLAWYQQKPGQAPRLLIYDASNRATGIPARFSGSGSGTDFTLTISSLEPEDFAVYYCQQRSNWPPEVTFGPGTKVDIK
notes: Enzymatically derived Fab
no binding (tested: up to 30 nM Fab): all assays above
